Test results: patent US20240336927

System: IgG SLE S6 (anti-BC autoantibody, polyclonal) (human)
Experiment: EMSA
Settings: reactivity relative to BC200 RNA

## U4 snRNA
  binding signal: < 5%
